Results: patent publication US20130064834A1 (published 2013)

B1: H1M300N (antibody, V domains shown)
VH: EMQLVESGGGLVQPGGSLRLSCAASGFTFSSHWMKWVRQAPGKGLEWVANINQDGSEKYYVDSVKGRFTISRDNAKNSLFLQMNSLRAEDTAVYYCARDIVLMVYDMDYYYYGMDVWGQGTTVTVSS
VL: not shown
notes: Fully human version made in CHO cells
B2: H1H316P (antibody, V domains shown)
VH: EVQLVESGGGLVQPGGSLRLSCAASGFTFNNYAMNWVRQAPGKGLDWVSTISGSGGTTNYADSVKGRFIISRDSSKHTLYLQMNSLRAEDTAVYYCAKDSNWGNFDLWGRGTLVTVSS
VL: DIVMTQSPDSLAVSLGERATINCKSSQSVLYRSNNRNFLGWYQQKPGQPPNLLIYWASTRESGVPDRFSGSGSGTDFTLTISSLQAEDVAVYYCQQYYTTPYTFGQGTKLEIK
notes: Fully human mAb made in CHO cells; also called mAb316P

Key:
Human PCSK9-myc-myc-his [1] = target: T1, Human PCSK9-myc-myc-his (human, UniProt Q8NBP7 31-692); test: SPR, mAb amine-coupled, 25C, pH 5.5
T1 construct: also called hPCSK9-mmh; hPCSK9
Text: (§1) Briefly, mAbs were immobilized onto BIACORE™ CM5 sensor chips via amine coupling.

[2] = target: T2, cynomolgus monkey (Macaca fascicularis) PCSK9, myc-myc-his tagged (cynomolgus monkey (Macaca fascicularis), UniProt A8T662 31-692 (Macaca nemestrina entry), limits assumed); test: SPR, mAb amine-coupled, 25C, pH 5.5
T2 construct: also called mfPCSK9-mmh; mfPCSK9
Text: as §1

hPCSK9(V380M) = target: T3, hPCSK9(V380M) (human, UniProt Q8NBP7 31-692); test: SPR, mAb captured, 25C;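 also: antibodies held on a sensor chip bearing chemically coupled F(ab′)2 anti-human IgG as the capture surface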
T3 construct: mmh-tagged variant hPCSK9
Text: (§2) Each selected antibody was captured on a F(ab′)2 anti-hIgG surface created through direct chemical coupling to a BIACORE™ chip to form a captured antibody surface.

hPCSK9(A341R) = target: T4, hPCSK9(A341R) (human, UniProt Q8NBP7 31-692); test: SPR, mAb captured, 25C;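 also: antibodies held on a sensor chip bearing chemically coupled F(ab′)2 anti-human IgG as the capture surface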
T4 construct: mmh-tagged variant hPCSK9
Text: as §2

hPCSK9(R215E) = target: T5, hPCSK9(R215E) (human, UniProt Q8NBP7 31-692); test: SPR, mAb captured, 25C;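 also: antibodies held on a sensor chip bearing chemically coupled F(ab′)2 anti-human IgG as the capture surface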
T5 construct: mmh-tagged variant hPCSK9
Text: as §2

hPCSK9(E197R) = target: T6, hPCSK9(E197R) (human, UniProt Q8NBP7 31-692); test: SPR, mAb captured, 25C;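 also: antibodies held on a sensor chip bearing chemically coupled F(ab′)2 anti-human IgG as the capture surface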
T6 construct: mmh-tagged variant hPCSK9
Text: as §2

hPCSK9(R357H) = target: T7, hPCSK9(R357H) (human, UniProt Q8NBP7 31-692); test: SPR, mAb captured, 25C
T7 construct: mmh-tagged variant hPCSK9
Text: as §2

Human PCSK9-myc-myc-his [3] = target: T1, Human PCSK9-myc-myc-his; test: SPR, mAb captured, 25C
Text: as §2

hPCSK9(S153R) = target: T8, hPCSK9(S153R) (human, UniProt Q8NBP7 31-692); test: SPR, mAb captured, 25C
T8 construct: mmh-tagged variant hPCSK9
Text: as §2

hPCSK9(R237E) = target: T9, hPCSK9(R237E) (human, UniProt Q8NBP7 31-692); test: SPR, mAb captured, 25C
T9 construct: mmh-tagged variant hPCSK9
Text: as §2

hPCSK9(F216L) = target: T10, hPCSK9(F216L) (human, UniProt Q8NBP7 31-692); test: SPR, mAb captured, 25C
T10 construct: mmh-tagged variant hPCSK9
Text: as §2

hPCSK9(E366K, V380M) = target: T11, hPCSK9(E366K, V380M) (human, UniProt Q8NBP7 31-692); test: SPR, mAb captured, 25C
T11 construct: mmh-tagged variant hPCSK9
Text: as §2

Human PCSK9-myc-myc-his [4] = target: T1, Human PCSK9-myc-myc-his; test: SPR, mAb amine-coupled, 25C, pH 7.4
Text: as §1

hPCSK9(D374Y)-mmh = target: T12, hPCSK9(D374Y)-mmh (human, UniProt Q8NBP7 31-692); test: SPR, mAb amine-coupled, 25C, pH 7.4
T12 construct: also called hPCSK(D374Y)-mmh
Text: as §1

[5] = target: T2, cynomolgus monkey (Macaca fascicularis) …; test: SPR, mAb amine-coupled, 25C, pH 7.4
Text: as §1

Human PCSK9-myc-myc-his [6] = target: T1, Human PCSK9-myc-myc-his; test: competition ELISA vs EGF-AB-hFc, pH 7.2
Experimental: (§3) Briefly, hLDLR-ecto, hLDLR EGF-A-hFc or hLDLR EGF-AB-hFc, each at 2 μg/ml, was coated on a 96-well plate in PBS buffer overnight at 4° C., and nonspecific binding sites blocked with BSA. […] The equilibrated sample solutions were transferred to receptor or receptor fragment coated plates.

Human PCSK9-myc-myc-his [7] = target: T1, Human PCSK9-myc-myc-his; test: SPR, antigen captured at low density, pH 5.5, 25C
[8] = target: T13, tagged rhesus monkey (Macaca mulata) PCSK9 (rhesus monkey (Macaca mulata), UniProt A8T666 31-692); test: competition ELISA vs EGF-A, pH 5.5
T13 construct: also called mmPCSK9-mmh; mmPCSK9
Experimental: as §3

Human PCSK9-myc-myc-his [9] = target: T1, Human PCSK9-myc-myc-his; test: competition ELISA vs EGF-A, pH 5.5
Experimental: as §3

[10] = target: T14, rat (Rattus norvegicus) PCSK9, myc-myc-his tagged (rat (Rattus norvegicus), UniProt P59996 31-691); test: competition ELISA vs EGF-A, pH 5.5
T14 construct: also called rPCSK9-mmh; rPCSK9
Experimental: as §3

[11] = target: T15, his-tagged Syrian golden hamster (Mesocricetus auratus) PCSK9 (Syrian golden hamster (Mesocricetus …)); test: competition ELISA vs EGF-A, pH 5.5
T15 construct: also called maPCSK9-h; maPCSK9
T15 chain: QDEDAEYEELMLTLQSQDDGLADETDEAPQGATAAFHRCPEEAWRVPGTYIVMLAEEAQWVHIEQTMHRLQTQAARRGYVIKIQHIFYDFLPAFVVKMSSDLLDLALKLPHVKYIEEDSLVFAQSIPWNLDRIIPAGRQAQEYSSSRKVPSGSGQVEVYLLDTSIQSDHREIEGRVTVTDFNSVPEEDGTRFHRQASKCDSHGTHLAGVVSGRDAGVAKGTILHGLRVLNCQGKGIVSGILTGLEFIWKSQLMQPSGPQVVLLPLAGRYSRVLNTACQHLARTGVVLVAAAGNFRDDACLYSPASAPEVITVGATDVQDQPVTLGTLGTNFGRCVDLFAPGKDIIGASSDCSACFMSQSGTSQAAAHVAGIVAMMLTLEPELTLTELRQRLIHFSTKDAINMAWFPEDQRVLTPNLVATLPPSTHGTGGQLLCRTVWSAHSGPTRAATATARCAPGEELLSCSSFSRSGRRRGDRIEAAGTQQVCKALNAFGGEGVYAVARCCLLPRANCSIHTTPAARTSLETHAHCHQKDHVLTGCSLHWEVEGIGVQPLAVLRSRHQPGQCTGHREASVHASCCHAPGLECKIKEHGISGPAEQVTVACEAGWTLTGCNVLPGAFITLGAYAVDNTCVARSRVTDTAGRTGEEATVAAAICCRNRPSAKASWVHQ
Experimental: as §3

[12] = target: T16, mouse PCSK9, myc-myc-his tagged (mouse, UniProt Q80W65 35-694); test: competition ELISA vs EGF-A, pH 5.5
T16 construct: also called mPCSK9-mmh; mPCSK9
Experimental: as §3

T2 sequence (A8T662 31-692 limits assumed): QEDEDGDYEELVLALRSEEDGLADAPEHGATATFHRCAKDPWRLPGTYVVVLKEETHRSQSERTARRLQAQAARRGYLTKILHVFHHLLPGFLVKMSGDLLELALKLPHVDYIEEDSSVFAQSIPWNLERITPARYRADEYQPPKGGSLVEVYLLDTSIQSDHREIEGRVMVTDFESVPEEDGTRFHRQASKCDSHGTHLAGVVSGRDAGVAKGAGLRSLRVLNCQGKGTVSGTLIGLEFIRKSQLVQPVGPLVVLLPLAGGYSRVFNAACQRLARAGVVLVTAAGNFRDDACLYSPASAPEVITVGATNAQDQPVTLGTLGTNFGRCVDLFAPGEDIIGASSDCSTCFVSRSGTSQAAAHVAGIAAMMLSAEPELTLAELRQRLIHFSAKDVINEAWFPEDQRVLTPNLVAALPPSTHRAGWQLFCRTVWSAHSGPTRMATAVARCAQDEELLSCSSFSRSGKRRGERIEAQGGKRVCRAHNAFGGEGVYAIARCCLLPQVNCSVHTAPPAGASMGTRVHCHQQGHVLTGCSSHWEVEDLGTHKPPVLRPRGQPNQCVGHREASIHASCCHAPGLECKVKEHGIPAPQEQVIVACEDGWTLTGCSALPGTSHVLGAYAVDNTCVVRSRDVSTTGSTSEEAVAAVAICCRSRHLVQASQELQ
T14 sequence (P59996 31-691 limits assumed): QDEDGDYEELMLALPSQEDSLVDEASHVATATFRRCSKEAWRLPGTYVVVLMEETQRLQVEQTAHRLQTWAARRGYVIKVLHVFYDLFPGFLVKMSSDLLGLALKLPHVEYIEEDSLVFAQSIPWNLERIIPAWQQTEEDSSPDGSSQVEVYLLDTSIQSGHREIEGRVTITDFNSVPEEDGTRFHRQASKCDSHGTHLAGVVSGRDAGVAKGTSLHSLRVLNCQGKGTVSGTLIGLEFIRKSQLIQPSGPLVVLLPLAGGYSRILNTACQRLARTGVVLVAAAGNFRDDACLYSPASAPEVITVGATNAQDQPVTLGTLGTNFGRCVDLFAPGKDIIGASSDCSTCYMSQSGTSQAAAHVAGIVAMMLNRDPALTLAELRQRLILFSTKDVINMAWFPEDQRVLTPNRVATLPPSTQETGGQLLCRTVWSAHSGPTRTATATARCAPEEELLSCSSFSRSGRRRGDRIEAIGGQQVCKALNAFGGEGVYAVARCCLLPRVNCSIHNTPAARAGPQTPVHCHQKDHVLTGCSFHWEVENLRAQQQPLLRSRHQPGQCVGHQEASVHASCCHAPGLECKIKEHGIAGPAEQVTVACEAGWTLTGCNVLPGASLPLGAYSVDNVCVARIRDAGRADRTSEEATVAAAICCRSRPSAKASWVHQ
T13 sequence (A8T666 31-692 limits assumed): as the sequence (A8T662 31-692 limits assumed) above, with A607P, E639K counted along it

Binder	Kd (Human PCSK9-myc-myc-his [1])	T1/2 (Human PCSK9-myc-myc-his [1])	Kd [2]	T1/2 [2]	Kd (hPCSK9(V380M))	T1/2 (hPCSK9(V380M))	Kd (hPCSK9(A341R))	T1/2 (hPCSK9(A341R))	Kd (hPCSK9(R215E))	Kd (hPCSK9(E197R))	T1/2 (hPCSK9(E197R))	Kd (hPCSK9(R357H))	T1/2 (hPCSK9(R357H))	Kd (Human PCSK9-myc-myc-his [3])	T1/2 (Human PCSK9-myc-myc-his [3])	Kd (hPCSK9(S153R))	T1/2 (hPCSK9(S153R))	Kd (hPCSK9(R237E))	T1/2 (hPCSK9(R237E))	Kd (hPCSK9(F216L))	further results
B1	3.1 nM	5 min	38.5 nM	0.4 min	2.82 nM	28 min	0.34 nM	190 min	1.81 nM	0.67 nM	115 min	6.53 nM	66 min	0.69 nM	120 min	0.56 nM	141 min	1.03 nM	109 min	0.99 nM	T1/2 (hPCSK9(F216L)): 121 min; Kd (hPCSK9(E366K, V380M)): 78.3 nM; T1/2 (hPCSK9(E366K, V380M)): 1 min; Kd (Human PCSK9-myc-myc-his [4]): 1.1 nM; T1/2 (Human PCSK9-myc-myc-his [4]): 76 min; Kd (hPCSK9(D374Y)-mmh): 1.31 nM; T1/2 (hPCSK9(D374Y)-mmh): 46 min; Kd [5]: 2.17 nM; T1/2 [5]: 31 min; IC50 (Human PCSK9-myc-myc-his [6]): < 0.125 nM; Kd (Human PCSK9-myc-myc-his [7]): 1.38 nM; T1/2 (Human PCSK9-myc-myc-his [7]): 13 min; IC50 [8]: 3.7 nM; IC50 (Human PCSK9-myc-myc-his [9]): 0.223 nM; IC50 [10]: > 100 nM; IC50 [11]: > 100 nM; IC50 [12]: > 100 nM
B2	0.022 nM	39 min	0.008 nM	23 min	0.48 nM	63 min	1.54 nM	21 min	0.9 nM	1.42 nM	27 min	6.26 nM	30 min	1 nM	37 min	5.64 nM	4 min	2.48 nM	15 min	1.83 nM	T1/2 (hPCSK9(R215E)): 43 min; T1/2 (hPCSK9(F216L)): 32 min; Kd (hPCSK9(E366K, V380M)): 3.33 nM; T1/2 (hPCSK9(E366K, V380M)): 12 min; Kd (Human PCSK9-myc-myc-his [4]): 1.26 nM; T1/2 (Human PCSK9-myc-myc-his [4]): 36 min; Kd (hPCSK9(D374Y)-mmh): 2.49 nM; T1/2 (hPCSK9(D374Y)-mmh): 15 min; Kd [5]: 1.42 nM; T1/2 [5]: 42 min; IC50 (Human PCSK9-myc-myc-his [6]): < 0.125 nM; Kd (Human PCSK9-myc-myc-his [7]): 0.188 nM; T1/2 (Human PCSK9-myc-myc-his [7]): 58 min; IC50 [8]: < 0.25 nM; IC50 (Human PCSK9-myc-myc-his [9]): < 0.125 nM; IC50 [10]: 42.9 nM; IC50 [11]: 1.3 nM; IC50 [12]: 0.991 nM
